Source: patent US20230002493A1 (ORIONIS BIOSCIENCES, published 2023)
Positions count from the first letter of the chain named. Names may count otherwise.

B1: 2LIG99 VHH (VHH)
VHH: QVQLQESGGGLVQAGGSLRLSCTASGTIFSINRMDWFRQAPGKQRELVALITSDGTPAYADSAKGRFTISRDNTKKTVSLQMNSLKPEDTAVYYCHVSSGVYNYWGQGTQVTVSS
notes: Parental PD-L1 VHH; stands here as the molecule on which the mutations are counted; also called wild-type 2LIG99; not shown: C-terminal His-tag
B2: 2LIG99_D55T (VHH)
VHH: B1 VHH with D54T
B3: 2LIG99_G56R (VHH)
VHH: B1 VHH with G55R
B4: 2LIG99_OPT5 (VHH)
VHH: B1 VHH with Q1D, Q5V, A14P, T74S, S79Y, K86R, Q110L
B5: 2LIG99_OPT4 (VHH)
VHH: B1 VHH with Q1D, Q5V, A14P, T74S, K76N, K86R, Q110L
B6: P-2051: 2LIG99_OPT_D54G_K76N (Q1D_Q5V_A14P_D54G_T74S_K76N_K86R_Q110L) (VHH)
VHH: B1 VHH with Q1D, Q5V, A14P, D54G, T74S, K76N, K86R, Q110L
notes: not shown: C-terminal His-tag ('produced as described above')
B7: 2LIG99_OPT1 (VHH)
VHH: B1 VHH with Q1D, Q5V, A14P, T74S, K86R, Q110L
B8: 2LIG99_OPT_D54G (VHH)
VHH: B1 VHH with Q1D, Q5V, A14P, D54G, T74S, K86R, Q110L
B9: P-2053: 2LIG99_OPT_D54G_A63V_K76N (Q1D_Q5V_A14P_D54G_A63V_T74S_K76N_K86R_Q110L) (VHH)
VHH: B1 VHH with Q1D, Q5V, A14P, D54G, A63V, T74S, K76N, K86R, Q110L
notes: as for B6
B10: P-1664: 2LIG99_OPT6 (Q1D_Q5V_A14P_T23A_A63V_T74S_K76N_S79Y_K86R_Q110L) (VHH)
VHH: B1 VHH with Q1D, Q5V, A14P, T23A, A63V, T74S, K76N, S79Y, K86R, Q110L
notes: not shown: C-terminal His-tag
B11: P-2055: 2LIG99_OPT_D54G_K76N_S79Y (Q1D_Q5V_A14P_D54G_T74S_K76N_K86R_S79Y_Q110L) (VHH)
VHH: B1 VHH with Q1D, Q5V, A14P, D54G, T74S, K76N, S79Y, K86R, Q110L
notes: as for B6
B12: 2LIG99_OPT_D54G_A63V (VHH)
VHH: B1 VHH with Q1D, Q5V, A14P, D54G, A63V, T74S, K86R, Q110L
B13: P-2052: 2LIG99_OPT_D54G_S79Y (Q1D_Q5V_A14P_D54G_T74S_S79Y_K86R_Q110L) (VHH)
VHH: B1 VHH with Q1D, Q5V, A14P, D54G, T74S, S79Y, K86R, Q110L
notes: as for B6
B14: 2LIG99_D55K (VHH)
VHH: B1 VHH with D54K
B15: P-2056: 2LIG99_OPT_D54G_A63V_K76N_S79Y (Q1D_Q5V_A14P_D54G_A63V_T74S_K76N_K86R_S79Y_Q110L) (VHH)
VHH: B1 VHH with Q1D, Q5V, A14P, D54G, A63V, T74S, K76N, S79Y, K86R, Q110L
notes: as for B6
B16: P-2054: 2LIG99_OPT_D54G_A63V_S79Y (Q1D_Q5V_A14P_D54G_A63V_T74S_K86R_S97Y_Q110L) (VHH)
VHH: B1 VHH with Q1D, Q5V, A14P, D54G, A63V, T74S, S79Y, K86R, Q110L
notes: The mutation list prints S97Y where the name prints S79Y; not shown: C-terminal His-tag ('produced as described above')
B17: P-1660: 2LIG99_OPT2 (Q1D_Q5V_A14P_T23A_T74S_K86R_Q110L) (VHH)
VHH: B1 VHH with Q1D, Q5V, A14P, T23A, T74S, K86R, Q110L
notes: not shown: C-terminal His-tag
B18: 2LIG189 VHH (VHH, not shown: small tags and cut ends)
VHH: QVQLQESGGGLVQAGGSLRLSCAASGKIFSGNDMGWYRQAPGKQRELVGIITSGGITDYADAVKGRFTISRDNAKNMMYLQMNSLKPEDTAVYYCNMRDRTIWWGQGTQVTVSS
notes: Parental PD-L1 VHH; stands here as the molecule on which the mutations are counted; also called wild-type 2LIG189
B19: 2LIG189_OPT_D33H (VHH)
VHH: B18 VHH with Q1D, Q5V, A14P, D33H, A74S, M77T, M78V, K86R, Q109L
B20: 2LIG189_OPT4 (VHH)
VHH: B18 VHH with Q1D, Q5V, A14P, A74S, M77T, M78V, K86R, Q109L
B21: 2LIG189_OPT_N32R_M97V (VHH)
VHH: B18 VHH with Q1D, Q5V, A14P, N32R, A74S, M77T, M78V, K86R, M97V, Q109L
B22: 2LIG189_N32Y (VHH)
VHH: B18 VHH with N32Y
B23: 2LIG189_OPT2 (VHH)
VHH: B18 VHH with Q1D, Q5V, A14P, A74S, M77T, K86R, Q109L
B24: 2LIG189_OPT1 (VHH)
VHH: B18 VHH with Q1D, Q5V, A14P, A74S, K86R, Q109L
B25: SEQ ID NO: 73 (2LIG189 humanization variant with deamidation and oxidation risk sites removed) (VHH)
VHH: B18 VHH with Q1D, Q5V, A14P, D33H, A74S, M77T, M78V, K86R, M97I, Q109L
notes: also called 2LIG189 second wave variant
B26: 2LIG189_OPT3 (VHH)
VHH: B18 VHH with Q1D, Q5V, A14P, A74S, M78V, K86R, Q109L
B27: 2LIG189_OPT_N32R_M97I (VHH)
VHH: B18 VHH with Q1D, Q5V, A14P, N32R, A74S, M77T, M78V, K86R, M97I, Q109L
B28: 2LIG189_OPT_N32R (VHH)
VHH: B18 VHH with Q1D, Q5V, A14P, N32R, A74S, M77T, M78V, K86R, Q109L

Experiments:
[1] = target: T1, recombinant PD-L1 extracellular domain fused to the mouse IgG1 Fc domain (SinoBiologicals) (human; mouse, UniProt Q9NZQ7 19-238); assay: BLI (Octet Red 96), PD-L1-mouse IgG1 Fc on AMQ biosensors, VHH dilution series
T1 construct: extracellular domain; also called human PD-L1-mouse Fc; PD-L1-mouse Fc protein; not shown: mouse IgG1 Fc domain
T1 sequence (Q9NZQ7 19-238): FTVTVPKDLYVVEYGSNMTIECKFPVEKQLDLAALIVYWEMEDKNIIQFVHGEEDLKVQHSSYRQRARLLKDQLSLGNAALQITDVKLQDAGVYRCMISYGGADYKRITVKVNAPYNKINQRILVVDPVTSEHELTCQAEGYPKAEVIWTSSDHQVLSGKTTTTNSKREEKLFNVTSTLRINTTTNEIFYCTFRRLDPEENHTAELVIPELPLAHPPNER
Method: (§1) Affinities of resulting variants were measured using the bio-layer interferometry technology on an Octet Red 96 instrument (ForteBio). In brief, recombinant PD-L1 extracellular domain fused to the mouse IgG1 Fc domain (SinoBiologicals) was immobilized on anti-murine IgG quantitation (AMQ) biosensors (ForteBio). Loaded sensors were incubated with a serial dilution of PD-L1 VHH variant, association and dissociation monitored and kinetic parameters were calculated using the Octet Data Analysis software v10 (ForteBio).

[2] = target: T1, recombinant PD-L1 extracellular domain …; assay: BLI (Octet), recombinant PD-L1-mouse Fc on the sensor, VHH dilution series
Method: as §1
The isomerization motif in all these variants was removed by the D54G mutation. Variants were produced as described above and affinity measured on an Octet instrument using the recombinant PD-L1-mouse Fc protein.

[3] = target: T1, recombinant PD-L1 extracellular domain …; assay: BLI (Octet Red 96); ratio of the printed KDs, 2LIG99 over variant
Method: as §1

[4] = target: T1, recombinant PD-L1 extracellular domain …; assay: BLI (Octet), PD-L1-mouse Fc on the sensor, VHH dilution series, as described above
Method: as §1

[5] = target: T1, recombinant PD-L1 extracellular domain …; assay: BLI (Octet Red 96), PD-L1-mouse IgG1 Fc on AMQ biosensors, VHH dilution series; remark: listed apart in the source
Method: as §1
(§2) The aspartic acid at position 1 was included to avoid the risk of pyroglutamate formation. […] Resulting mutants were purified and affinities measured as described in Example 1.

[6] = target: T1, recombinant PD-L1 extracellular domain …; assay: BLI (Octet Red 96); ratio of the printed KDs, variant over 2LIG189
Method: as §1, §2

Row | Binder | Kd [1] | koff [1] | kon [1] | Kd [2] | koff [2] | kon [2] | further results
1 | B1 | 0.282 nM | 0.000447 s⁻¹ | 1.58e+06 M⁻¹ s⁻¹ | 0.719 nM | 0.000721 s⁻¹ | 1e+06 M⁻¹ s⁻¹ | –
2 | B2 | 1.48 nM | 0.000436 s⁻¹ | 295000 M⁻¹ s⁻¹ | – | – | – | Ratio KD [3]: 0.19
3 | B3 | 1.01 nM | 0.000761 s⁻¹ | 753000 M⁻¹ s⁻¹ | – | – | – | Ratio KD [3]: 0.28
4 | B4 | 0.124 nM | 7.55e-05 s⁻¹ | 607000 M⁻¹ s⁻¹ | – | – | – | Ratio KD [3]: 2.27
5 | B5 | 0.452 nM | 0.000304 s⁻¹ | 671000 M⁻¹ s⁻¹ | – | – | – | Ratio KD [3]: 0.62
6 | B6 | – | – | – | 0.358 nM | 0.000599 s⁻¹ | 1.67e+06 M⁻¹ s⁻¹ | –
7 | B7 | 0.794 nM | 0.000704 s⁻¹ | 886000 M⁻¹ s⁻¹ | – | – | – | Ratio KD [3]: 0.35
8 | B8 | – | – | – | 0.553 nM | 0.000856 s⁻¹ | 1.55e+06 M⁻¹ s⁻¹ | –
9 | B9 | – | – | – | 0.602 nM | 0.00112 s⁻¹ | 1.87e+06 M⁻¹ s⁻¹ | –
10 | B10 | 10.3 nM | 0.00124 s⁻¹ | 121000 M⁻¹ s⁻¹ | – | – | – | Ratio KD [3]: 0.03
11 | B11 | – | – | – | 0.0445 nM | 5.52e-05 s⁻¹ | 1.24e+06 M⁻¹ s⁻¹ | –
12 | B12 | – | – | – | 1.16 nM | 0.00151 s⁻¹ | 1.3e+06 M⁻¹ s⁻¹ | –
13 | B13 | – | – | – | 0.182 nM | 0.000279 s⁻¹ | 1.54e+06 M⁻¹ s⁻¹ | –
14 | B14 | 0.459 nM | 0.0007 s⁻¹ | 1.53e+06 M⁻¹ s⁻¹ | – | – | – | Ratio KD [3]: 0.61
15 | B15 | – | – | – | 0.735 nM | 0.000677 s⁻¹ | 921000 M⁻¹ s⁻¹ | –
16 | B16 | – | – | – | 0.427 nM | 0.000779 s⁻¹ | 1.83e+06 M⁻¹ s⁻¹ | –
17 | B17 | 1.48 nM | 0.000658 s⁻¹ | 445000 M⁻¹ s⁻¹ | – | – | – | Ratio KD [3]: 0.19
18 | B18 | – | – | – | – | – | – | Kd [4]: 5.41 nM; koff [4]: 0.00131 s⁻¹; kon [4]: 243000 M⁻¹ s⁻¹; Kd [5]: 0.791 nM; koff [5]: 0.000148 s⁻¹; kon [5]: 187000 M⁻¹ s⁻¹
19 | B19 | – | – | – | – | – | – | Kd [4]: 0.324 nM; koff [4]: 0.000145 s⁻¹; kon [4]: 446000 M⁻¹ s⁻¹
20 | B20 | – | – | – | – | – | – | Kd [5]: 1.74 nM; koff [5]: 0.000301 s⁻¹; kon [5]: 174000 M⁻¹ s⁻¹; Ratio KD [6]: 2.19
21 | B21 | – | – | – | – | – | – | Kd [4]: 3.38 nM; koff [4]: 0.00056 s⁻¹; kon [4]: 166000 M⁻¹ s⁻¹
22 | B22 | – | – | – | – | – | – | Kd [5]: 2.04 nM; koff [5]: 0.000629 s⁻¹; kon [5]: 308000 M⁻¹ s⁻¹; Ratio KD [6]: 2.58
23 | B23 | – | – | – | – | – | – | Kd [5]: 1.28 nM; koff [5]: 0.000299 s⁻¹; kon [5]: 234000 M⁻¹ s⁻¹; Ratio KD [6]: 1.62
24 | B24 | – | – | – | – | – | – | Kd [5]: 6.92 nM; koff [5]: 0.000497 s⁻¹; kon [5]: 71800 M⁻¹ s⁻¹; Ratio KD [6]: 8.75
25 | B25 | – | – | – | – | – | – | Kd [4]: 0.555 nM; koff [4]: 0.000329 s⁻¹; kon [4]: 593000 M⁻¹ s⁻¹
26 | B26 | – | – | – | – | – | – | Kd [5]: 4.89 nM; koff [5]: 0.000942 s⁻¹; kon [5]: 193000 M⁻¹ s⁻¹; Ratio KD [6]: 6.18
27 | B27 | – | – | – | – | – | – | Kd [4]: 2.32 nM; koff [4]: 0.000457 s⁻¹; kon [4]: 197000 M⁻¹ s⁻¹
28 | B28 | – | – | – | – | – | – | Kd [4]: 1.94 nM; koff [4]: 0.000731 s⁻¹; kon [4]: 377000 M⁻¹ s⁻¹
